Laboratory results from US20250152742A1, “COMPOSITIONS AND METHODS FOR NEUROLOGICAL DISEASES” (Trames Bio, Inc., priority 2022, published 2025).

Test system: engineered chimeric receptor SEQ ID NO: 33 and its mutants (human α7-nAChR ligand binding domain / human GlyRα1 ion pore domain) in Lenti-X 293T cells
Experiment: YFP fluorescence quenching anion reporter plate reader assay (percent quench, EC50)
Format: cell-based
Settings: for YFP fluorescence quenching using CNL001 (percent quench): receptor named in row; for YFP fluorescence quenching using Facinicline, 30 nM fac: ligand Facinicline 30 nM; for YFP fluorescence quenching using Facinicline, 300 nM fac: ligand Facinicline 300 nM; for YFP fluorescence quenching using Facinicline, 30 uM fac: ligand Facinicline 30 uM; for YFP fluorescence quenching using TC-6987, 1 uM tc6987: ligand TC-6987 1 uM; for YFP fluorescence quenching using TC-6987, 10 uM tc6987: ligand TC-6987 10 uM; for YFP fluorescence quenching using TC-6987, 500 uM tc6987: ligand TC-6987 500 uM; for YFP fluorescence quenching using Varenicline, 3 nM var: ligand Varenicline 3 nM; for YFP fluorescence quenching using Varenicline, 30 nM var: ligand Varenicline 30 nM; for YFP fluorescence quenching using Varenicline, 300 nM var: ligand Varenicline 300 nM; for YFP fluorescence quenching using Varenicline, 500 nM var: ligand Varenicline 500 nM; for YFP fluorescence quenching using Varenicline, 1 uM var: ligand Varenicline 1 uM
Description: To screen these mutant LGICs for those having novel response profiles to ligands, an anion reporter assay was developed to assess the function of the LGICs in a high throughput format. In this assay, cells expressing a YFP reporter whose fluorescence is quenched in the presence of anion are transfected with DNA encoding the channel of interest. Upon exposure to ligand, channels that are activated will flux anion, resulting in a dose-dependent quench of the YFP that can be detected on a plate reader. The greater the quench signal (i.e., the more positive the value), the higher the ligand activity on the receptor is.
Lenti-X 293T cells (LX293T, Clontech) were maintained in DMEM containing 10% FBS and 1% penicillin/streptomycin (Invitrogen). […] Two days before assay, cells were split at a density of 20,000 cells/well in a 96-well tissue culture plate coated with poly-d lysine (Thermo Scientific). The next day, the cells were transiently transfected with 0.1 μg of DNA per well using standard Fugene protocol (Promega). On the day of assay, cells were washed 2 times in 1X extracellular solution (1X ECS: 140 mM NaCl, 5 mM KCl, 1 mM MgCl2, 2 mM CaCl2, 10 mM HEPES, 10 mM glucose, pH 7.2, mOsms 300). After the last wash, 100 μL of 1X ECS was added to the wells and the plate was incubated at 37° C. for 30 min. While incubating the plate, the drugs were diluted to a 2X concentration in 1X ECS-Nal (same components as 1X ECS except the 140 mM NaCl was replaced by 140 mM Nal). The plates were then read on a Flexstation3 (Molecular Devices). Each well, 8 wells at a time, of the plate is read for 2 min using a Flexstation3 (Molecular Devices) as follows: 1) a baseline YFP fluorescence is read for 17 sec, 2) 100 μL of ligand is added, and 3) the changes in YFP fluorescence are then measured every 1.3 sec for 1 minute and 43 seconds. The percent quench is calculated from the average fluorescence of the last 10 seconds of the read divided by the baseline average of the first 15 seconds prior to the ligand addition.
FIGS. 1A-1J provide heat maps of the percent quench of YFP fluorescence following stimulation by various doses of either acetylcholine or the non-native ligand as indicated in the Figures. CODA71 (SEQ ID NO: 33) was used as a control, and CODA75 (SEQ ID NO: 29, a non-responding chimeric engineered receptor) was used as the negative control. Quenching of the fluorescence signal, as indicated by blue shaded cells, indicate the level of engineered receptor activation by the non-native ligand at that concentration.

[1] = 1 nM CNL001, first column so headed
[2] = 1 nM CNL001, second column so headed
[3] = 3 nM brd (TC-5619/Bradanicline)
[4] = 10 nM CNL001, first column so headed
[5] = 10 nM CNL001, second column so headed
[6] = 30 nM brd (TC-5619/Bradanicline)
[7] = 50 nM CNL001, first column so headed
[8] = 50 nM CNL001, second column so headed
[9] = 100 nM CNL001, first column so headed
[10] = 100 nM CNL001, second column so headed
[11] = 300 nM brd (TC-5619/Bradanicline)
[12] = 1 uM CNL001, first column so headed
[13] = 1 uM CNL001, second column so headed

B1: CODA238: engineered receptor: R101W in SEQ ID NO: 33 (protein)
chain: MRCSPGGVWLALAASLLHVSLQGEFQRKLYKELVKNYNPLERPVANDSQPLTVYFSLSLLQIMDVDEKNQVLTTNIWLQMSWTDHYLQWNVSEYPGVKTVWFPDGQIWKPDILLYNSADERFDATFHTNVLVNSSGHCQYLPPGIFKSSCPMDLKNFPMDVQTCKLKFGSWSYGGWSLDLQMQEADISGYIPNGEWDLVGIPGKRSERFYECCKEPYPDVTFTVTMRRRMGYYLIQMYIPSLLIVILSWISFWINMDAAPARVGLGITTVLTMTTQSSGSRASLPKVSYVKAIDIWMAVCLLFVFSALLEYAAVNFVSRQHKELLRFRRKRRHHKSPMLNLFQEDEAGEGRFNFSAYGMGPACLQAKDGISVKGANNSNTTNPPPAPSKSPEEMRKLFIQRAKKIDKISRIGFPMAFLIFNMFYWIIYKIVRREDVHNQ
modifications: synthetic sequence of chimeric LGIC
YFP fluorescence quenching using CNL001 (percent quench) [1]: 32.42%
YFP fluorescence quenching using CNL001 (percent quench) [2]: 54.768%
YFP fluorescence quenching using TC-5619/Bradanicline (percent quench) [3]: 74.7%
YFP fluorescence quenching using CNL001 (percent quench) [4]: 75.149%
YFP fluorescence quenching using CNL001 (percent quench) [5]: 75.339%
YFP fluorescence quenching using TC-5619/Bradanicline (percent quench) [6]: 76.78%
YFP fluorescence quenching using CNL001 (percent quench) [7]: 75.881%
YFP fluorescence quenching using CNL001 (percent quench) [8]: 77.844%
YFP fluorescence quenching using ABT-126 (percent quench) (50 nM abt (ABT-126)): −14.97%
YFP fluorescence quenching using CNL001 (percent quench) [9]: 78%
YFP fluorescence quenching using CNL001 (percent quench) [10]: 78.575%
YFP fluorescence quenching (percent quench) (100 nM CNL002): 2.95%
YFP fluorescence quenching using ABT-126 (percent quench) (100 nM abt (ABT-126)): −14.66%
YFP fluorescence quenching using AZD-0328 (percent quench) (100 nM azd0328): 22.94%
YFP fluorescence quenching using ABT-126 (percent quench) (300 nM abt (ABT-126)): −16.35%
YFP fluorescence quenching using AZD-0328 (percent quench) (300 nM azd0328): 75.38%
YFP fluorescence quenching using TC-5619/Bradanicline (percent quench) [11]: 77.01%
YFP fluorescence quenching using CNL001 (percent quench) [12]: 81.126%
YFP fluorescence quenching using CNL001 (percent quench) [13]: 79.482%
YFP fluorescence quenching (percent quench) (1 uM CNL002): 67.93%
YFP fluorescence quenching using ABT-126 (percent quench) (1 uM abt (ABT-126)): 50.02%
YFP fluorescence quenching (percent quench) (10 uM ach (acetylcholine)): −16.58%
YFP fluorescence quenching (percent quench) (30 uM CNL002): 73.02%
YFP fluorescence quenching using AZD-0328 (percent quench) (30 uM azd0328): 81.8%
YFP fluorescence quenching (percent quench) (100 uM ach (acetylcholine)): 75.18%
YFP fluorescence quenching (percent quench) (1 mM ach (acetylcholine)): 78.99%
YFP fluorescence quenching (percent quench) (3 mM ach (acetylcholine)): 75.74%
YFP fluorescence quenching using Facinicline, 30 nM fac: −19.61
YFP fluorescence quenching using Facinicline, 300 nM fac: 76.54
YFP fluorescence quenching using Facinicline, 30 uM fac: 87.94
YFP fluorescence quenching using TC-6987, 1 uM tc6987: 72.47
YFP fluorescence quenching using TC-6987, 10 uM tc6987: 72.04
YFP fluorescence quenching using TC-6987, 500 uM tc6987: 76.56
YFP fluorescence quenching using Varenicline, 3 nM var (first column): 17.896
YFP fluorescence quenching using Varenicline, 3 nM var (second column): 12.564
YFP fluorescence quenching using Varenicline, 30 nM var (first column): 16.263
YFP fluorescence quenching using Varenicline, 30 nM var (second column): 22.117
YFP fluorescence quenching using Varenicline, 300 nM var (first column): 77.492
YFP fluorescence quenching using Varenicline, 300 nM var (second column): 79.056
YFP fluorescence quenching using Varenicline, 500 nM var (first column): 80.186
YFP fluorescence quenching using Varenicline, 500 nM var (second column): 80.065
YFP fluorescence quenching using Varenicline, 1 uM var (first column): 81.263
YFP fluorescence quenching using Varenicline, 1 uM var (second column): 80.702

B2: CODA282: engineered receptor: Y115D in SEQ ID NO: 33 (protein)
chain: MRCSPGGVWLALAASLLHVSLQGEFQRKLYKELVKNYNPLERPVANDSQPLTVYFSLSLLQIMDVDEKNQVLTTNIWLQMSWTDHYLQWNVSEYPGVKTVRFPDGQIWKPDILLDNSADERFDATFHTNVLVNSSGHCQYLPPGIFKSSCPMDLKNFPMDVQTCKLKFGSWSYGGWSLDLQMQEADISGYIPNGEWDLVGIPGKRSERFYECCKEPYPDVTFTVTMRRRMGYYLIQMYIPSLLIVILSWISFWINMDAAPARVGLGITTVLTMTTQSSGSRASLPKVSYVKAIDIWMAVCLLFVFSALLEYAAVNFVSRQHKELLRFRRKRRHHKSPMLNLFQEDEAGEGRFNFSAYGMGPACLQAKDGISVKGANNSNTTNPPPAPSKSPEEMRKLFIQRAKKIDKISRIGFPMAFLIFNMFYWIIYKIVRREDVHNQ
modifications: synthetic sequence of chimeric LGIC
YFP fluorescence quenching using CNL001 (percent quench) [1]: −15.837%
YFP fluorescence quenching using CNL001 (percent quench) [2]: −6.519%
YFP fluorescence quenching using TC-5619/Bradanicline (percent quench) (1 nM brd (TC-5619/Bradanicline)): −0.54%
YFP fluorescence quenching using TC-5619/Bradanicline (percent quench) [3]: −7.22%
YFP fluorescence quenching using CNL001 (percent quench) [4]: −4.862%
YFP fluorescence quenching using CNL001 (percent quench) [5]: −8.244%
YFP fluorescence quenching using TC-5619/Bradanicline (percent quench) (10 nM brd (TC-5619/Bradanicline)): −2.82%
YFP fluorescence quenching using TC-6683 (percent quench) (30 nM TC-6683): 0.365%
YFP fluorescence quenching using TC-5619/Bradanicline (percent quench) [6]: −16.67%
YFP fluorescence quenching using CNL001 (percent quench) [7]: −3.807%
YFP fluorescence quenching using CNL001 (percent quench) [8]: −2.871%
YFP fluorescence quenching using ABT-126 (percent quench) (50 nM abt (ABT-126)): −21.22%
YFP fluorescence quenching using CNL001 (percent quench) [9]: −7.924%
YFP fluorescence quenching using CNL001 (percent quench) [10]: 2.11%
YFP fluorescence quenching (percent quench) (100 nM CNL002): −9.7%
YFP fluorescence quenching using ABT-126 (percent quench) (100 nM abt (ABT-126)): −19.7%
YFP fluorescence quenching using AZD-0328 (percent quench) (100 nM azd0328): 3.19%
YFP fluorescence quenching using TC-5619/Bradanicline (percent quench) (100 nM brd (TC-5619/Bradanicline)): −0.02%
YFP fluorescence quenching using TC-6683 (percent quench) (300 nM TC-6683): −6.865%
YFP fluorescence quenching using ABT-126 (percent quench) (300 nM abt (ABT-126)): −15.55%
YFP fluorescence quenching using AZD-0328 (percent quench) (300 nM azd0328): 4.79%
YFP fluorescence quenching using TC-5619/Bradanicline (percent quench) [11]: −12.37%
YFP fluorescence quenching using CNL001 (percent quench) [12]: 11.047%
YFP fluorescence quenching using CNL001 (percent quench) [13]: 8.04%
YFP fluorescence quenching (percent quench) (1 uM CNL002): −8.37%
YFP fluorescence quenching using ABT-126 (percent quench) (1 uM abt (ABT-126)): −14.31%
YFP fluorescence quenching using TC-5619/Bradanicline (percent quench) (1 uM brd (TC-5619/Bradanicline)): 31.23%
YFP fluorescence quenching using TC-6683 (percent quench) (3 uM TC-6683): −4.927%
YFP fluorescence quenching (percent quench) (10 uM ach (acetylcholine)): 6.81%
YFP fluorescence quenching (percent quench) (30 uM CNL002): 3.4%
YFP fluorescence quenching using TC-6683 (percent quench) (30 uM TC-6683): −11.259%
YFP fluorescence quenching using AZD-0328 (percent quench) (30 uM azd0328): 76.78%
YFP fluorescence quenching using TC-6683 (percent quench) (100 uM TC-6683): −11.894%
YFP fluorescence quenching (percent quench) (100 uM ach (acetylcholine)): 1.19%
YFP fluorescence quenching (percent quench) (1 mM ach (acetylcholine)): −14.05%
YFP fluorescence quenching (percent quench) (3 mM ach (acetylcholine)): 2.37%
YFP fluorescence quenching using Facinicline, 30 nM fac: 10.17
YFP fluorescence quenching using Facinicline, 100 nM fac (ligand Facinicline 100 nM): 24.77
YFP fluorescence quenching using Facinicline, 300 nM fac: 51.04
YFP fluorescence quenching using Facinicline, 10 uM fac (ligand Facinicline 10 uM): 79.76
YFP fluorescence quenching using Facinicline, 30 uM fac: 81.7
YFP fluorescence quenching using TC-6987, 1 uM tc6987: 13.01
YFP fluorescence quenching using TC-6987, 10 uM tc6987: 14.73
YFP fluorescence quenching using TC-6987, 500 uM tc6987: 14.29
YFP fluorescence quenching using Varenicline, 3 nM var (first column): 2.111
YFP fluorescence quenching using Varenicline, 3 nM var (second column): −12.265
YFP fluorescence quenching using Varenicline, 30 nM var (first column): −4.433
YFP fluorescence quenching using Varenicline, 30 nM var (second column): −6.153
YFP fluorescence quenching using Varenicline, 300 nM var (first column): −0.861
YFP fluorescence quenching using Varenicline, 300 nM var (second column): −1.308
YFP fluorescence quenching using Varenicline, 500 nM var (first column): 0.733
YFP fluorescence quenching using Varenicline, 500 nM var (second column): −4.633
YFP fluorescence quenching using Varenicline, 1 uM var (first column): −4.512
YFP fluorescence quenching using Varenicline, 1 uM var (second column): 0.02
